B1: CPEB3 Ribozyme (parent)
chain: UAACAGGGGGCCACAGCAGAAGCGUUCACGUCGCAGCCCCUGUCAGAUUCUGGUGAAUCUGCGAAUUCUGCUGUAUAUCUC

Variants of: B1
Experiment: self-cleavage, relative activity (ratio to wild type); higher = more cleavage; in vitro, sequencing
Method in brief: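 Relative activity compares each variant's cleaved/total read fraction with that of the unmutated ribozyme. To get these fractions, barcoded CPEB3 ribozyme libraries from rounds of error-prone PCR were transcribed with T7 RNA polymerase for 5 hours at 37°C and then given 15 min of DNase I treatment before EDTA was added. The RNAs were reverse transcribed with template switching and sequenced on Illumina, and DNA sequencing linked barcodes to variants. A minimum of 5 reads applied, and three batches were averaged.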

Variant	self-cleavage
G46C U80A	0.2
G46U U74A	0.46
A47C G55U	0.16
U48C U58G	0.25
U48C U58C	0.34
U48C U58A	0.23
A47G A65U	0.49
A47G A65G	0.4
A47C A77G	0.34
U48C G63C	0.47
U48C G63U	0.57
U48C G63A	0.64
A47U C68A	0.25
A47C U74C	0.7
U48A U66C	0.16
U48A U66A	0.36
U48A U66G	0.43
U48G A56G	0.28
A47C A65U	0.12
A47G G63A	0.88
A47G G63C	0.93
G46U U54G	0.16
G46U U54C	0.14
U48C U67A	0.3

Variant	self-cleavage
U48C U67C	0.3
A47U A57U	0.64
A47U A57G	0.32
A47U U51G	0.47
A47U U51A	0.4
A47U U51C	0.43
U48C U54A	0.71
U48C U54G	0.38
U48C U54C	0.4
A47U U66C	0.36
A47U U66A	0.26
U48G A57C	1.11
U48G A57G	0.4
U48G A57U	1.07
G46U U72A	0.37
G46U U72C	0.22
G46U U72G	0.25
U48C A64U	0.27
U48C A64C	0.18
U48C A64G	0.41
G46U U76C	0.38
G46U A65G	0.07
U48A U74A	0.98
U48A U78A	0.42

Variant	self-cleavage
U48A U78C	0.35
A47G U48C	0.31
A47G U48A	0.23
A47G U48G	0.26
A47C A75U	0.3
U48C U51G	0.33
U48C U51A	0.42
U48C U51C	0.49
U48A A75G	0.32
U48A A75U	0.61
A47G U74C	1.13
A47G U74A	1.21
A47G U74G	1.24
U48A C59A	0.44
A47G G70A	0.77
U48C A77C	0.61
U48C A77U	0.65
U48C A77G	0.6
A47U U67A	0.33
A47U U67C	0.3
A47U G70A	0.13
A47U G70U	0.14
U48C U72A	0.4
U48C U72C	0.7

Variant	self-cleavage
A47C U78G	0.46
A47C U78A	0.51
A47C U78C	0.54
A47C A57G	0.5
U48C U78A	0.86
U48C U78C	0.54
U48C U78G	0.94
U48C C59U	0.39
U48C C59A	0.19
U48C G55C	0.36
U48C G55A	0.32
G46U	0.28
U48A U58A	0.5
U48A U58C	0.29
U48A U58G	0.18
U48C U74G	1.02
U48C U74C	1.02
U48C U74A	0.88
G46U U69A	0.22
G46U U69C	0.53
A47C U76A	0.48
A47G U60A	0.41
A47G U60G	0.41
A47G U60C	0.37

Variant	self-cleavage
A47G U58C	1.1
A47G U58G	0.29
A47G U58A	0.57
A47G A75G	0.88
A47G A75C	0.98
A47G A75U	1.11
A47U A77G	0.37
A47U A77U	0.71
U48A U51C	0.44
U48C C79U	0.88
U48C C79A	0.89
U48C C79G	0.74
U48C U76C	0.67
U48C U76A	0.72
U48C G61C	0.18
U48C G61A	0.33
A47C C71U	0.13
U48A U69G	0.34
U48A U69C	0.44
U48A U69A	0.18
G46U A64G	0.16
G46U A64U	0.18
A47U U58C	0.39
U48C U60C	0.26

Variant	self-cleavage
U48C U60A	0.26
U48C U60G	0.33
A47U U49C	0.46
A47U U49A	0.41
U48C G73C	1.23
U48C G73U	0.95
A47U A56G	0.35
A47U A56U	0.33
A47U C79U	0.52
U48A U49C	0.3
U48A U49G	0.21
U48A U49A	0.38
U48A U72G	0.58
U48A U72A	0.22
U48A U72C	0.45
A47G C81U	1.04
A47G G52A	1.25
U48A C62U	0.43
G46U A75C	0.37
G46U A75G	0.22
A47G U67C	0.35
A47G U67G	0.34
A47G U67A	0.49
U48C C62U	0.33

Variant	self-cleavage
A47G C68U	0.89
A47G C68A	0.43
U48C C50A	0.25
U48C C50U	0.54
A47G A77U	1.06
A47G A77G	1.09
U48A A77G	0.54
G46C U78C	0.21
A47U G52A	0.86
U48G	0.5
U48C	0.65
U48A	0.48
U48C C71A	0.49
U48C C71U	0.32
U48C G70C	0.21
U48C G70A	0.19
G46U U60A	0.38
G46U U60C	0.19
A47G C79U	1.12
U48C U69A	0.37
U48C U69G	0.36
U48C U69C	0.32
A47U U76C	0.59
A47U U76A	0.82

Variant	self-cleavage
A47G U80A	1.13
A47G U80C	1.08
A47U U78C	0.57
A47U U78A	0.7
U48C G53A	0.69
U48C A57G	1.11
U48C A57C	0.5
U48C A57U	0.58
U48A U67C	0.25
A47U U72A	0.35
A47U U72C	0.53
G46U U49A	0.29
A47G U78C	0.93
A47G U78A	1.07
A47G U78G	0.79
G46U U67C	0.03
G46U U67A	0.23
A47G U66A	0.45
A47G U66C	0.35
A47G U66G	0.27
A47G U54C	1.01
A47G U54A	1.08
U48C A56U	0.38
U48C A56G	0.38

Variant	self-cleavage
U48C A56C	0.33
U48C C68G	0.18
U48C C68A	0.34
A47U C81A	1.13
G46U U58C	0.17
A47C U51A	0.33
A47U G55U	0.26
G46U A57G	0.22
U48A U80A	0.87
U48A U80C	0.57
U48A G55A	0.21
A47G A56U	0.45
A47G A56C	0.95
A47G A56G	0.71
U48A A57U	1.09
U48A A57G	0.47
U48C G52A	0.87
U48C G52C	0.42
U48C G52U	0.84
G46U C68U	0.23
A47G C71U	0.87
A47C U60A	0.15
A47U A64G	0.37
A47U A64U	0.26

Variant	self-cleavage
U48A U76A	0.5
U48A U76C	0.67
A47U C62U	0.33
A47G U72C	1.12
A47G U72A	0.64
A47G U72G	0.35
A47C G63A	0.56
A47G G53C	1.19
A47G G53A	1.18
A47U U48C	0.26
A47U U48G	0.18
G46U A47G	0.15
G46U U78C	0.27
A47G C50A	0.59
A47G C50U	0.8
A47G A57G	0.51
A47G A57C	0.36
A47G A57U	0.29
A47C C59U	0.18
A47U G63A	0.29
A47U U60A	0.21
A47U U60G	0.29
A47U U60C	0.23
A47C U72A	0.26

Variant	self-cleavage
A47C U69C	0.25
A47G A64U	0.34
A47G A64G	0.9
U48A A64U	0.14
U48A A64G	0.26
A47G U76G	1.16
A47G U76A	0.98
A47G U76C	1.04
A47U U74C	1.14
A47U U74A	0.64
A47U U74G	0.96
G46U U48G	0.14
A47C U80C	0.43
A47U C50A	0.23
U48C U66A	0.44
U48C U66C	0.27
G46U G73A	0.81
A47G G55C	0.57
A47G G55U	0.99
A47G G55A	0.75
U48C U49G	0.29
U48C U49C	0.32
U48C U49A	0.48
U48A A65U	0.15

Variant	self-cleavage
U48A A65G	0.4
U48A U54A	0.43
U48A U54C	0.39
G46U U80C	0.3
G46U U66C	0.16
A47C G73A	0.85
U48A C79G	0.73
U48A C50U	0.35
A47U U80A	0.51
A47U U80C	0.66
A47U U80G	0.8
A47G C59G	0.35
A47G C59A	0.29
G46U U51C	0.28
G46U A56G	0.18
G46U A56U	0.17
A47G U49A	0.34
A47G U49G	0.47
A47G U49C	0.33
U48C A75U	0.71
U48C A75C	1.07
U48C A75G	0.43
A47U C59U	0.2
A47U C59A	0.17

Variant	self-cleavage
U48A C71A	0.2
A47C	0.4
A47G	1.01
A47U	0.62
G46U G53C	0.23
A47C C62U	0.18
U48C A65C	0.21
U48C A65G	0.27
U48C A65U	0.27
A47U A65G	0.35
A47U A65U	0.16
A47C A64G	0.26
A47C A64U	0.45
A47G G61U	0.49
A47G G61C	0.35
A47G G61A	0.61
A47C U67A	0.23
A47C U67C	0.12
U48A A56U	0.31
U48A A56C	0.26
U48A A56G	0.33
A47G U69C	0.57
A47G U69A	0.6
A47G U69G	0.68

Variant	self-cleavage
G46U A77G	0.2
G46U G70A	0.08
U48A U60C	0.14
U48A U60G	0.19
U48A U60A	0.31
U48C U80A	0.68
U48C U80C	0.68
A47G C62A	0.33
A47G C62U	0.3
A47G G73U	1.26
A47G G73A	1.21
U48C C81U	1
A47U U54C	0.37
A47U U54A	0.72
A47U A75U	1
A47U A75G	0.38
A47U G53U	1.03
A47U U69A	0.34
A47U U69C	0.33
A47G U51C	0.94
A47G U51G	0.79
A47G U51A	0.98
